According to the DeepSol protein solubility set:

Assay: soluble on expression in E. coli; label from the status in PepcDB or PDB records

Row | Sequence | soluble on expression in E. coli
1 | MGSDKIHHHHHHMSADGSEYGRYFEQLQKVNLTVRLGDTGSFDGTAAITSLKGSLAWLELFGAEQPPPNTLSEGAEVSVSVWTGGALCRCDGRVETLRDDRQFAIRLVGRVRELQRREYFRLDVSIPFSYELLAGVSPEEAQERWLHERMDSWRSPAMVQEGSSWRVVDWNGRDIPSARANLSGGGMRFRVSEDVASGTLMLVSLFLPHPQPRVICVLAEALRCAEITLTLQAGTHYSLSMRFITISDKDREAVISYLFSEQRRELMSKSDRFQIGGRR | not soluble
2 | MSLVKIVDVAKAANVSPAVVSRILSNDSKLVVREETRARVQQAIEALGYTPNLQARGLRLSRSNTLAMIVPELNSPVFPVIIQGAQRAAWERGYSLLVGGMGGEEEDPKVAGRLLRSNRIDGLLVTTGRHEAQMLQELATLNAPFVLVNRYLDDQHPYVELDERGAAAAITRHFIELGHRRIAFLGGLQRRVGERRVAGYADALAEAGLPWVPQLVVDAGYYKPGGEDGLRQLLALDEPPTAVVATNEIVAAGAMAAAHRQGVRIPRDLSIASFSDGIVAELLSPALTAVRFPLERMGYLATAMLVDIVEGRGAPQAGLCLPHESVVVRDSTARPPGRKARAATREGHHHHHH | not soluble
3 | MGSSHHHHHHGGTGENLYFQGGSGAKKHLKRLYAPKDWMLSKLTGVFAPRPRPGPHKLRECLPLLVIIRNRLKYALNAREGEMILRQGLVHVDNHPRRDGKYPAGFMDVVEIPKTGDRFRLMYDVKGRFALVNLSEAEAQIKLMKVVNLYTATGRVPVAVTHDGHRIRYPDPHTSIGDTIVYNVKEKKCVDLIKNRQGKAVIVTGGANRGRIGEIVKVECHPGAFNIAHLKDASGAEFATRAANIFVIGKDLNNLQVTVPKQQGLRMNVIQEREERLIAAEARKNAPARGARRARK | soluble
4 | MSLTIPGVVIIGGAHGTLALARSLGVLNVPVYYLTHDSPLPGWSRFVRETIRWAGPHDDGAMAFLREMAEKPGLKGCLLVPSGDGEVQLVSQHREELSALYKIILPEWTNLQWLCEKPLLYKRAAELGVSIPRTYALTSAADIDGLDVMFPVILKPHMGGGNTSIARAKVIRADDREELKAAFVDASGEIGPDNVVVQELIPGGGESQFSYAALWLNGEPIAEFTARRARQYPVDFGYTSTRVEVVDNRQAIEAARKILKSAGHSGLVEVEFKLDGRDGALKLLDVNPRPWSWFGLCSAAGINLGGLLWRVANEGHHHHHH | soluble
5 | MLLNLFNEMRAAKVPVSLRELLDLINALKQRVIFADIDEFYFLARTILVKDERHFDKFDRAFGAYFNGLEKLDDHLQALIPEDWLRKEFERSLSDEERAQIQSLGGLDKLIDEFKKRLEEQKERHAGGNKWIGTGGTSPFGSGGYNPEGIRVGDAGERKGKAVKVWDQREYKNLDDQVDLGTRNIKVALRRLRKFARQGAADELDIDGTIDHTARDAGLLNIQMRPERRNTIKLLLLFDIGGSMDSHVKVCEELFSACKTEFKHMEYFYFHNFIYETVWKNNLRRGSERTATQDLLHKYGADYKVIFIGDASMAPYEITQPGGSVEHWNEEAGYVWMQRFMAKFKKVIWINPYPKDAWDYTTSTHIVRDLIEQHMYPLTLQGLEDGMRYLA | not soluble
6 | MGSDKIHHHHHHMKNNRINIHSQQYMETMARLMSEALESPEGMRALAAAIAAPIEQEIKRKEISSLLLTRHTLPKGERPIYQKKPTVKAHWISKDGEAQEQELGKDEVEFPTNRIHSNPMVDISVLKHGNIGTLMDIQTGAASSIRKEMDSRTITVISSAIPAANTVEVTGDKVTEEALNEAISIIEDLELSVKYIVLRGRRFNDMRSWNLDPQTKLELRQKGVIKNYGTGGILLTAAMPMDEIIIVPDEEVGKLPVRENLKTESIDQKTRFKTGWLVWSEIGQGITRPDILAKVKLVP | not soluble
7 | MSLADKAFHTRLINMRRDLHEHPELSFQEVETTKKIRRWLEEEQIEILDVPQLKTGVIAEIKGREDGPVIAIRADIDALPIQEQTNLPFASKVDGTMHACGHDFHTASIIGTAMLLNQRRAELKGTVRFIFQPAEEIAAGARKVLEAGVLNGVSAIFGMHNKPDLPVGTIGVKEGPLMASVDRFEIVIKGKGGHAGIPNNSIDPIAAAGQIISGLQSVVSRNISSLQNAVVSITRVQAGTSWNVIPDQAEMEGTVRTFQKEARQAVPEHMRRVAEGIAAGYGAQAEFKWFPYLPSVQNDGTFLNAASEAAARLGYQTVHAEQSPGGEDFALYQEKIPGFFVWMGTNGTEEWHHPAFTLDEEALTVASQYFAELAVIVLETIKEGGSHHHHHH | soluble
8 | MHHHHHHSSGVDLGTENLYFQSMDLRVQELIKLICNVQAMEEMMMEMKYNTKKAPLGKLTVAQIKAGYQSLKKIEDCIRAGQHGRALMEACNEFYTRIPHDFGLRTPPLIRTQKELSEKIQLLEALGDIEIAIKLVKTELQSPEHPLDQHYRNLHCALRPLDHESYEFKVISQYLQSTHAPTHSDYTMTLLDLFEVEKDGEKEAFREDLHNRMLLWHGSRMSNWVGILSHGLRIAHPEAPITGYMFGKGIYFADMSSKSANYCFASRLKNTGLLLLSEVALGQCNELLEANPKAEGLLQGKHSTKGLGKMAPSSAHFVTLNGSTVPLGPASDTGILNPDGYTLNYNEYIVYNPNQVRMRYLLKVQFNF | soluble
9 | MGHHHHHHSHMEEMKKTAIRLPKGKQKPIKTEWNSRCVLFTYFQGDISSVVDEHFSRALSNIKSPQELTPSSQSEGVMLKNDDSMSPNQWRYSSPWTKPQPEVPVTNRAANCNLHVPGPMAVNQFSPSLARRASVRPGELWHFSSLAGTSSLEPGYSHPFPARHLVPEPQPDGKREPLLSLLQQDRCLARPQESAARENGNPGQIAGSTGLLFNLPPGSVHYKKLYVSRGSASTSLPNETLSELETPGKYSLTPPNHWGHPHRYLQHL | not soluble
10 | VDLGSKSSNSTCRLNVTELASIHPGETWTLHGMCISICYYENVTEDEIIGVAFTWQHNESVVDLWLYQNDTVIRNFSDITTNILQDGLKMRTVPVTKLYTSRMVTNLTVGRYDCLRCENGTTKIIERLYVRLGSLYPRPPGSGLAKHPSVSADEELSA | soluble
11 | MEEPMEVDNKRPKVLTWTEKYRPKTLDDIAYQDEVVTMLKGALQGRDLPHLLFYGPPGTGKTSAALAFCRQLFPKNIFHDRVLDLNASDERGIAVVRQKIQSFSKSSLGHSHREDVLKLKIIILDEVDAMTREAQAAMRRVIEDFSKTTRFILICNYVSRLIPPVVSRCAKFRFKSLPAEIQVQRLRTICDAEGTPMSDDELKQVMEYSEGDLRRAVCTLQSLAPILKSGDDNARNCYLRGSSDSLLISNVCKSILTADVPQIIALTKDITKSCTGVAFIRRCFQQLMDEDVINDENIGVMGKLVATCEKRILDGCDLENNLLDFLLTLRETIQ | not soluble
12 | MAHHHHHHMTDEKKEEWIRRPYTRSIPVKLRSLAQLEESTVDATTQWYELLEQLVTETDVKGILQQTTKRKAARKLEELASQLRAVMQEMTAQSGRVVREGVDTQSFEQFCAWAGSTPSLQTTEASNGCTQMDKLCARVCMLCLCVAVILNDLELLICGMSFAESHKLLETYSRECEQRSVRQSNSIPDSGMEKGKNSEDVVLCSTVAHTLICGNDHNTFVPLADGDVLLACTLLYYLYTQDGPSASKSVMILERVLHCAEEVGYTSDVLDETGGYRIDFFYTISRMANWVETDNCPRLYQRIAHGFHGGSEVLVPFPPFVFLFTQVMLHMVVRRRLVEMQLQNVWRPVVTMDAAPVGCDGTAAETCSHVHPTVSSTSLCSAHGSKFFAVCLMLQRDCLSQYRSWPLPMELQKSFFC | not soluble
13 | MAHHHHHHMDPNAFLSSFDAIVTLSNTEGPRHNVLEPKFTAREQMQALRESVRNAYKESPSQTAMSQICRCYVFIGFNMLETDEETEGVSEICKAYTLTLFGSKKELLDDVVDIAAHPLEEILRNEVPFVTAEKEYAFVTEFMRVHNALGFYFSNRDVELRINDAKQVLIVAEKAYRAWNDWFHQSFPGHCLMKDIPVLENGTLDRASISPDALPIYIVRFEMDTAFTSTLFFLAQVYTACKMTALASRYCHHTLYHQLLNKMEFSKKDWATNALHLSAFYSSCFDYGKALHCLRAGEYIMPEENANEETLGIVAWAFGKFYLHRLHYYSEVRRNCAPRGHFPDEFEGWWVDFPLDIPPPQPLPAIETFEDARKCFKEANVWFNKALNYYVYDGCCTEHIDIKKDIAQLYAALIPFEENRDRIIAMHQRRIALIELFPSDLNFNAYPTLVRQLLFDLGGMHEEMLEVYIQQKNSPMEGEKPLSDKKINAFADKVQGFYRRFCDTWKEPQTNKIPETIDIDSRLPFFRSLMRLAHLQMKRFFKDPKEEYDNISASIVMFEKAIAFASSNPMNEEADAEVQLAREMATLLPVRQKDLWRVYHNAV | not soluble
14 | MGLALQHSHRWDLSPREAANLQTRLRPLVLAEDALPDEIRTVAGVDVGFEDHGRITRAAVAVLDFPSLRPSDQAIVRRPTRFPYVPGLLSFRELPALLEALERLNLLPGLILVDGHGYAHPRRFGIACHLGVLTGIPTIGVGKTRLVGTHGELAEDRGSWIPLIDGDETVGAVVRTRRGVQPVYVSVGHRLSLPTAVDWVLRCTPRYRLPETTRQAHRLASALEHHHHHH | not soluble
15 | MGSDKIHHHHHHMNDPLDPLPSLNALRAFEAASRHLNFRLAAGELGVTQGAVAQHVRGLESSIGLVLFERRPRALVLTENGRSYAASVRRAFDLLVEATQALRPQPLQLTISVTPTFAAKWLIPRLQDFTAAHPEIDLRIIATDRLSHFQTDAIDLAVRYGQPPFGVGLNAECLFESVLVAVGSPRLANELRSSGAARFFARYPLLHDAHNQWPPFLQEVLKQSAAIGEKNIRFNQTSLAIDAAMAGQGIALAPFAFVGRAIAMGGLSRIFDVELRTGSGFYVVTPRRLRHPGPVAAVRGWLLKQGREQMCD | not soluble
16 | MGSDKIHHHHHHMATIEILGFPHAYELTAPTSYPDALVFIHGWLNSRGYWQPVTSRLSVDFQCLSYDLRGFGESQSQLETDFHRGSSSASLSAQSLQEINLSFDSLYTPAAYAQDLAALLEQLNITSAWLVGHSLGGTIALWAAAQIPQRIKGVICINAGGGIYLKEAFEQFRMAGQRFLQVRPRWLSQLPLIDLLFTRASVSRPLDRQWARQRVIDFVVADPEAALGALLDSTTEDEVNRLPKLVSQLKQPVYFLAGTDDKVMEPKYVRHLASFHPLFQYCGDNVIEIPDCGHLAMLEQPDAVASHIKSLVIGHG | not soluble
17 | ATDVIAQRKAILKQMGEATKPIAAMLKGEAKWDQAVVQKSLAAIADDSKKLPALFPADSKTGGDTAALPKIFEDKAKFDDLFAKLAAAATAAQGTIKDEASLKANIGGVLGNCKSCHDDFRAKKS | soluble
18 | MLRTQAARLICNSRVITAKRTFALATRAAAYSRPAARFVKPMITTRGLKQINFGGTVETVYERADWPREKLLDYFKNDTFALIGYGSQGYGQGLNLRDNGLNVIIGVRKDGASWKAAIEDGWVPGKNLFTVEDAIKRGSYVMNLLSDAAQSETWPAIKPLLTKGKTLYFSHGFSPVFKDLTHVEPPKDLDVILVAPKGSGRTVRSLFKEGRGINSSYAVWNDVTGKAHEKAQALAVAIGSGYVYQTTFEREVNSDLYGERGCLMGGIHGMFLAQYDVLRENGHSPSEAFNETVEEATQSLYPLIGKYGMDYMYDACSTTARRGALDWYPIFKNALKPVFQDLYESTKNGTETKRSLEFNSQPDYREKLEKELDTIRNMEIWKVGKEVRKLRPENQ | not soluble
